{
  "source": "patent US20260015399A1",
  "about": "(Boehringer Ingelheim, published 2026)",
  "binders": {"B1": {"name": "Compound 90 (peptide)", "peptide": "Isovaleryl-APEK([Ahx-γGlu-C18 diacid])PEEDATPEELQRYYVVLRHYYNWLTRQRY-NH2", "SMILES": "CC(C)CC(=O)N[C@@H](C)C(=O)N1CCC[C@H]1C(=O)N[C@@H](CCC(=O)O)C(=O)N[C@@H](CCCCNC(=O)CCCCCNC(=O)CC[C@H](NC(=O)CCCCCCCCCCCCCCCCC(=O)O)C(=O)O)C(=O)N1CCC[C@H]1C(=O)N[C@@H](CCC(=O)O)C(=O)N[C@@H](CCC(=O)O)C(=O)N[C@@H](CC(=O)O)C(=O)N[C@@H](C)C(=O)N[C@H](C(=O)N1CCC[C@H]1C(=O)N[C@@H](CCC(=O)O)C(=O)N[C@@H](CCC(=O)O)C(=O)N[C@@H](CC(C)C)C(=O)N[C@@H](CCC(N)=O)C(=O)N[C@@H](CCCNC(=N)N)C(=O)N[C@@H](Cc1ccc(O)cc1)C(=O)N[C@@H](Cc1ccc(O)cc1)C(=O)N[C@H](C(=O)N[C@H](C(=O)N[C@@H](CC(C)C)C(=O)N[C@@H](CCCNC(=N)N)C(=O)N[C@@H](Cc1c[nH]cn1)C(=O)N[C@@H](Cc1ccc(O)cc1)C(=O)N[C@@H](Cc1ccc(O)cc1)C(=O)N[C@@H](CC(N)=O)C(=O)N[C@@H](Cc1c[nH]c2ccccc12)C(=O)N[C@@H](CC(C)C)C(=O)N[C@H](C(=O)N[C@@H](CCCNC(=N)N)C(=O)N[C@@H](CCC(N)=O)C(=O)N[C@@H](CCCNC(=N)N)C(=O)N[C@@H](Cc1ccc(O)cc1)C(N)=O)[C@@H](C)O)C(C)C)C(C)C)[C@@H](C)O"}, "B2": {"name": "Compound 96 (peptide)", "peptide": "Isovaleryl-APEK([Ahx-γGlu-C18 diacid])PEESATPEELQRYYVSLRHYYNWLTRQRY-NH2", "SMILES": "CC(C)CC(=O)N[C@@H](C)C(=O)N1CCC[C@H]1C(=O)N[C@@H](CCC(=O)O)C(=O)N[C@@H](CCCCNC(=O)CCCCCNC(=O)CC[C@H](NC(=O)CCCCCCCCCCCCCCCCC(=O)O)C(=O)O)C(=O)N1CCC[C@H]1C(=O)N[C@@H](CCC(=O)O)C(=O)N[C@@H](CCC(=O)O)C(=O)N[C@@H](CO)C(=O)N[C@@H](C)C(=O)N[C@H](C(=O)N1CCC[C@H]1C(=O)N[C@@H](CCC(=O)O)C(=O)N[C@@H](CCC(=O)O)C(=O)N[C@@H](CC(C)C)C(=O)N[C@@H](CCC(N)=O)C(=O)N[C@@H](CCCNC(=N)N)C(=O)N[C@@H](Cc1ccc(O)cc1)C(=O)N[C@@H](Cc1ccc(O)cc1)C(=O)N[C@H](C(=O)N[C@@H](CO)C(=O)N[C@@H](CC(C)C)C(=O)N[C@@H](CCCNC(=N)N)C(=O)N[C@@H](Cc1c[nH]cn1)C(=O)N[C@@H](Cc1ccc(O)cc1)C(=O)N[C@@H](Cc1ccc(O)cc1)C(=O)N[C@@H](CC(N)=O)C(=O)N[C@@H](Cc1c[nH]c2ccccc12)C(=O)N[C@@H](CC(C)C)C(=O)N[C@H](C(=O)N[C@@H](CCCNC(=N)N)C(=O)N[C@@H](CCC(N)=O)C(=O)N[C@@H](CCCNC(=N)N)C(=O)N[C@@H](Cc1ccc(O)cc1)C(N)=O)[C@@H](C)O)C(C)C)[C@@H](C)O"}, "B3": {"name": "Compound 93 (peptide)", "peptide": "Isovaleryl-APEK([Ahx-γGlu-C18 diacid])PEEDASPEEIQRYYVQLRHYYNWLTRQRY-NH2", "SMILES": "CC[C@H](C)[C@H](NC(=O)[C@H](CCC(=O)O)NC(=O)[C@H](CCC(=O)O)NC(=O)[C@@H]1CCCN1C(=O)[C@H](CO)NC(=O)[C@H](C)NC(=O)[C@H](CC(=O)O)NC(=O)[C@H](CCC(=O)O)NC(=O)[C@H](CCC(=O)O)NC(=O)[C@@H]1CCCN1C(=O)[C@H](CCCCNC(=O)CCCCCNC(=O)CC[C@H](NC(=O)CCCCCCCCCCCCCCCCC(=O)O)C(=O)O)NC(=O)[C@H](CCC(=O)O)NC(=O)[C@@H]1CCCN1C(=O)[C@H](C)NC(=O)CC(C)C)C(=O)N[C@@H](CCC(N)=O)C(=O)N[C@@H](CCCNC(=N)N)C(=O)N[C@@H](Cc1ccc(O)cc1)C(=O)N[C@@H](Cc1ccc(O)cc1)C(=O)N[C@H](C(=O)N[C@@H](CCC(N)=O)C(=O)N[C@@H](CC(C)C)C(=O)N[C@@H](CCCNC(=N)N)C(=O)N[C@@H](Cc1c[nH]cn1)C(=O)N[C@@H](Cc1ccc(O)cc1)C(=O)N[C@@H](Cc1ccc(O)cc1)C(=O)N[C@@H](CC(N)=O)C(=O)N[C@@H](Cc1c[nH]c2ccccc12)C(=O)N[C@@H](CC(C)C)C(=O)N[C@H](C(=O)N[C@@H](CCCNC(=N)N)C(=O)N[C@@H](CCC(N)=O)C(=O)N[C@@H](CCCNC(=N)N)C(=O)N[C@@H](Cc1ccc(O)cc1)C(N)=O)[C@@H](C)O)C(C)C"}, "B4": {"name": "Compound 95 (peptide)", "peptide": "Isovaleryl-APEK([Ahx-γGlu-C18 diacid])PEEDATPEELQAYYVSLRHYYNWLTRQRY-NH2", "SMILES": "CC(C)CC(=O)N[C@@H](C)C(=O)N1CCC[C@H]1C(=O)N[C@@H](CCC(=O)O)C(=O)N[C@@H](CCCCNC(=O)CCCCCNC(=O)CC[C@H](NC(=O)CCCCCCCCCCCCCCCCC(=O)O)C(=O)O)C(=O)N1CCC[C@H]1C(=O)N[C@@H](CCC(=O)O)C(=O)N[C@@H](CCC(=O)O)C(=O)N[C@@H](CC(=O)O)C(=O)N[C@@H](C)C(=O)N[C@H](C(=O)N1CCC[C@H]1C(=O)N[C@@H](CCC(=O)O)C(=O)N[C@@H](CCC(=O)O)C(=O)N[C@@H](CC(C)C)C(=O)N[C@@H](CCC(N)=O)C(=O)N[C@@H](C)C(=O)N[C@@H](Cc1ccc(O)cc1)C(=O)N[C@@H](Cc1ccc(O)cc1)C(=O)N[C@H](C(=O)N[C@@H](CO)C(=O)N[C@@H](CC(C)C)C(=O)N[C@@H](CCCNC(=N)N)C(=O)N[C@@H](Cc1c[nH]cn1)C(=O)N[C@@H](Cc1ccc(O)cc1)C(=O)N[C@@H](Cc1ccc(O)cc1)C(=O)N[C@@H](CC(N)=O)C(=O)N[C@@H](Cc1c[nH]c2ccccc12)C(=O)N[C@@H](CC(C)C)C(=O)N[C@H](C(=O)N[C@@H](CCCNC(=N)N)C(=O)N[C@@H](CCC(N)=O)C(=O)N[C@@H](CCCNC(=N)N)C(=O)N[C@@H](Cc1ccc(O)cc1)C(N)=O)[C@@H](C)O)C(C)C)[C@@H](C)O"}, "B5": {"name": "Compound 94 (peptide)", "peptide": "Isovaleryl-APAK([Ahx-γGlu-C18 diacid])PEADASPEELQRYYVELRHYYNWLTRQRY-NH2", "SMILES": "CC(C)CC(=O)N[C@@H](C)C(=O)N1CCC[C@H]1C(=O)N[C@@H](C)C(=O)N[C@@H](CCCCNC(=O)CCCCCNC(=O)CC[C@H](NC(=O)CCCCCCCCCCCCCCCCC(=O)O)C(=O)O)C(=O)N1CCC[C@H]1C(=O)N[C@@H](CCC(=O)O)C(=O)N[C@@H](C)C(=O)N[C@@H](CC(=O)O)C(=O)N[C@@H](C)C(=O)N[C@@H](CO)C(=O)N1CCC[C@H]1C(=O)N[C@@H](CCC(=O)O)C(=O)N[C@@H](CCC(=O)O)C(=O)N[C@@H](CC(C)C)C(=O)N[C@@H](CCC(N)=O)C(=O)N[C@@H](CCCNC(=N)N)C(=O)N[C@@H](Cc1ccc(O)cc1)C(=O)N[C@@H](Cc1ccc(O)cc1)C(=O)N[C@H](C(=O)N[C@@H](CCC(=O)O)C(=O)N[C@@H](CC(C)C)C(=O)N[C@@H](CCCNC(=N)N)C(=O)N[C@@H](Cc1c[nH]cn1)C(=O)N[C@@H](Cc1ccc(O)cc1)C(=O)N[C@@H](Cc1ccc(O)cc1)C(=O)N[C@@H](CC(N)=O)C(=O)N[C@@H](Cc1c[nH]c2ccccc12)C(=O)N[C@@H](CC(C)C)C(=O)N[C@H](C(=O)N[C@@H](CCCNC(=N)N)C(=O)N[C@@H](CCC(N)=O)C(=O)N[C@@H](CCCNC(=N)N)C(=O)N[C@@H](Cc1ccc(O)cc1)C(N)=O)[C@@H](C)O)C(C)C"}},
  "note": "*1 amine or outer side, *2 acyl side, *3 side chain or, on linkers, in order; H or OH if unused. Side-chain parts run from the residue outwards. The star is where a group is joined. C18 diacid = O=C(O)CCCCCCCCCCCCCCCCC(=O)*; γGlu = O=C(O)[C@H](CCC(=O)[*:2])N[*:1]; Isovaleryl = CC(C)CC(=O)*; Ahx = NCCCCCC(=O)O",
  "data": [
    {"target": "T1, human NPY2 receptor (human, UniProt P49146 1-381)", "T1 construct": "whole, on cells; also called hNPY2-R; hNPY2R", "T1 sequence (looked up)": "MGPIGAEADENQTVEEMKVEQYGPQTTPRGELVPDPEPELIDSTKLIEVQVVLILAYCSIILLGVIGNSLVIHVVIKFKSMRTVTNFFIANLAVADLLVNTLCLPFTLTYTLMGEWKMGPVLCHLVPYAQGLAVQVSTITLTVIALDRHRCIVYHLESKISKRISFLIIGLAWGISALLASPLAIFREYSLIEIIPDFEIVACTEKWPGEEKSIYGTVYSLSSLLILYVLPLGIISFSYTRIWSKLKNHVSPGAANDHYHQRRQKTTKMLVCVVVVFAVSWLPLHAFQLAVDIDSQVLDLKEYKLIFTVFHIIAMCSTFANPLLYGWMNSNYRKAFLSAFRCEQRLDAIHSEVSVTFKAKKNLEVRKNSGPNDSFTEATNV", "assay": "RLB: displacement of 125I-PYY(1-36) from hNPY2R membranes", "units": {"Ki": "nM"}, "values": [
      {"binder": "B1", "Ki": 8.71},
      {"binder": "B2", "Ki": 3.06},
      {"binder": "B3", "Ki": 1.71},
      {"binder": "B4", "Ki": 2.92},
      {"binder": "B5", "Ki": 0.93}
    ]}
  ]
}
